# Source: the nanobody polyreactivity screen of Harvey et al. (2022)
# Assay: yeast display, Sf9 membrane polyspecificity reagent, FACS + sequencing; frameworks hold sequencing errors
# How it was run: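 Using colony PCR, genes from sorted yeast display clones were amplified, then sequenced on MiSeq at 2 × 250 and filtered by CDR length. The clones had been stained with 10% biotinylated, detergent-solubilized Sf9 membrane reagent for 1 hour at 4 °C and sorted by FACS into low and high (top ~1%) gates on anti-HA and streptavidin fluorescence. Polyreactivity labels come from the gate of origin.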
row,Sequence,polyreactivity (PSR sort gate)
1,QVQLVESGGGLVQAGGSLRLSCAASGSTFYKYAMGWSRQAPGKERELVASITGGTRTYYADSVKGRFTISRDNAKNTVYLQMNSLKPEDTAVYYCNVVGGRYLYSAYDYWGQGTQVTVSS,low polyreactivity
2,QVQLVESVGGLVQAGGSLRLSCAASGSTFDKYAMGWYRQAPGKERELVATISQSGASTYYADSVKGRFTISRDNAKNTVYLQMNSLKPEDTAVYYCAARSSTRVWYWGRYYYWGQGTQVTVSS,high polyreactivity
3,QVQLVESGGGLVQAGGSLRLTCAASGFIFNFYAMGWYRQAPGKERELVAAISRNGGSTYYADSVKGRFTISRDNAKNTVYLQMNSLKPEDTAVYYCNAGGSYGDFGYWGKGTQVTVSS,high polyreactivity
4,QVQLVESGGGLVQAGGSLRLSCAASGSTFGLYAMGWYRQAPGKERELVAAISSGGRTNYADSVKGRFTISRDNAKNTVYLQMNSLKPEDTAVYYCASAYIRGSRRYDYWGQGTQVTVSS,high polyreactivity
5,QVQLVESGGGLVQAGGSLRLSCAASGRTFGSYAMGWYRQAPGKERELVAAITWSGGITYFADSVKGRFTISRDNAKNTVYLKMNSLKPEDTAVYYCNVYVSAGEEDEYWGQGTQVTVSS,low polyreactivity
6,QVQLVESGGGLVQPGGSLRLSCAASGRTFTKNAMGWYRQAPGKERELVAAISISGGSTYYADSVKGRFTISRDNAKNTVYLLMNSLKPEDTAVYYCAADVVTYLSYTLDYWGQGTQVTVSS,low polyreactivity
7,QVQLVESCGGLVQAGGSLRLSCAASGSTFSYNAMGWYRQAPGKEREMVAAITYGGGSTYYADSVKGRFTISRDNAKNTVYLQMNSLKPEDTAVYYCAVEKYGRYRPYSYGYWGQGTQVTVSS,high polyreactivity
8,QVQLVESGGGLVQAGGSLRISCAASGRTFGINAMGWYRQAPGKERELVAAISSSGSTYYADSVKGRFTISRDNAKNTVYLQMNSLKPEDTAVYYCAAVAKQWGNTYYYWGQGTQVTVSS,high polyreactivity
9,QGQLVESGGGLVQAGGSLRLSCAASGGIFSDYAMGWYIQEPGKEREFVAAISVRGTSTDYADSVKGRFTISRDNAKNTVYLQMNSLKPEDTAVYYCNAQGAPQVRDVLPYEFDYWGQGTQVTVSS,low polyreactivity
10,QVQLVESGGGLVQAGGSIRLSCAASGFTFSQYVMGWYRQAPGKERELVAAISYRGGSTYYADSVKGRFTSARDNAKNTVYLQMNSLQPEDTAVYYGAAVAYSWHNRYDYCGQGTQVTVSS,high polyreactivity
11,QVQLVESGGGLVQAGGSLRLSCAASGRTFNSYAMGWSRQAPGKDRELVAAISRTGASTYYADSVKGRFTISRDNAQNTVYLQMHSLKPEDTAVYYCAADANSGDGYYWGHGTQVTVSS,high polyreactivity
12,QVQLVESGGGLVQAGGSLRLSCAASGLTFQYNTMGWYRQAPGKERELVARINWGGDSTYYADSVKGRFTISRDNAKNTVYLQMNSLTPEDTAVYYCAAPGYSGRYGYYTYYLYDYWGQGTQVTVSS,low polyreactivity
13,QVQLVESGGGLVQAGGSLRVSCAASGFIFSYSAMGWYRQAPGKERELVAAISRSGGRTYYADSVKGRFTISRDNAKNTVYLQMNSLKPEDTAVYYCAAPVSLRPIYDYWGHGTQVTVSS,high polyreactivity
14,QVQLVESGVGLVQAGGSLRLSCAASGRIFNDNAMGWYSQAPGKERELVAAISTGGSTNYADSVKWRFTISRDNAKNTVYLQMNSLKPEDTEVYYCAADHPVTYETSKFDYWGQGTQVTVSS,low polyreactivity
15,QVQLVESGGGLVQAGGSLRLSCAASGRTFSYYAMGWYRQAPGKERELVAAIDDNGGTTYADSVKGRFTISRDNATNTVYLQINSLKPEDTAVYYCAKRVSYFWALRRGYWGQGTKVTVSS,high polyreactivity
16,QVQLVESGGGLVQAGGSLRISCAASGFTFRWYTMGWYRQAPGKERELVAAISWSGTSTYYADSVKGRFTISRDNAKNTVYLQMNSLKPEDTAVYYCAAADFYYTGADDYWGQGTQVTVSS,high polyreactivity
17,QVQLVESGGRLVQAGGSLRLSCAASGRNFGLYAMGWYRQAPGKEREFVAAIRWIGGGTYYADSVKGRFTISRDNAKNTVYLQMNSLKPEDTAVYYCAARLSVAWVGYDYWGQGTQVTVSS,low polyreactivity
18,QVQLVESGGGLVQARGSLRLSCAASGNTIIRYAMGWYRQAPGKERELVAAISYAGGRTYYADSVKGRFTISRDNAKNTVYLQMNSLTPEDTAVYYCNAASRYGGDYWGQGTQVTVSS,high polyreactivity
19,QVQLVESGGGLVQAGGSLRLSCAASGSIFGFYAMGWYRQAPGKERELVASISSSGDSTYYADSVKGRFTISRDNAKNTVYLQMNSLNPEDTAVYYCAAVVYDIYGYEFDYWGQGTQVTVSS,low polyreactivity
20,QVKLEDSGGGLVQAGGSLRLSCAASGSTFEKYVMGWYRQAPGKERELVAAITYSGDSTYYADSVKGRFTISRDNAKNTVYLQMNSLKPEDTAVYYCAAKTTRTSIPRKGRGYYYWGQGTQVTVSS,high polyreactivity
21,QVQLVESGGGLVQAGGSLRISCASSGRTFWGNAKGRYRQAPGKERELVAGITKSGGTTYADSVKGRFTISRDNAKKTVYLQMNSLKPEDTAVYYCNAVRWQKGDYWGQGTQVTVSS,high polyreactivity
22,QVQLVESGGGLVHAGGSLRLSCAASGSTLSYAMGWYRQAPGKERELVAAISRSGGSTYYADSVKGRFTISRDNAKNTVYLQMNSLKPEDTAVYYCAADPYPSYANGGYYWGQGTQVTVSS,high polyreactivity

row,Sequence,polyreactivity (PSR sort gate)
1,QVQLVESGGGLVQAGGSLRLSCAASGSTFVGYAMGWYRPAPGKDRELVADIDSIGGSTYYADSVKGRFTISRDNAKNTVYVQMNSPKPEDTAVYYCAKTWYPWSRSGYYRRYDSWGQGTQVTVSS,low polyreactivity
2,QVQLVESGGGLVQAGGSLRLSCAASGFIFVVYAMGWYRQAPGKERELVAAITNGGITYYADSVKGRFTISRDNAKNTVYLQMHSLKPEDTADYYCNAQYTDYDGYVGYYYWGEGTQVTVSS,low polyreactivity
3,QVQLVESGGGLVQAGGSLRLSCAASGSIFHPYAMGWYRQAPGKERELVAAISKSGGNTYYADSVKGRFTISRDNAKNTVYLQMNSLKPEDTAVYYCAALDYWGQVTQVTVSS,low polyreactivity
4,QVQLVESGGGLVQAGGSLRLSCDASGRIFGYYAMGWYRQAPGKERELVAAISDGGSTDYADSVKGRFTISRDNAKNTVYLQMNSLKPEDTAVYYCNADRLYLYNVEYDYWGQGTQVTVSS,low polyreactivity
5,QVQLVESGGGLVQAGGSLRLSCAASGRIFIDYAMGWYRQAPGKERELVATISESGGSTYYADSVKARFTISRDNAKNTVYLQMNSLKPEDTAVYYCAAVGDNLATAEYDFWGQGTKVTVSS,low polyreactivity
6,QVQLVESGGGLVQAGGSLRLSCAASGRTFPVYAMGWYRQAPGKERELVAAIRGRSVRTYYADSVNGRFTISRDNAKNTVYLQMNSLKPEDTAVYYCAAYYFNPGMDYWGQGTQVTVSS,high polyreactivity
7,QVQLVESGGGLFQAGGSLRLSCAASGGTFNFYAMGWYRQAPGKERELVARIDSGVSTNYADTVKGRFTISRDNAKNTVYLQMNSLKPEDTAVYYCNAERYRSRRYPYRYLYYYWGQGTQVTVSS,high polyreactivity
8,QVHLVESGGGLVQAGGSLRLTCAASGFIFQWYAMGWYRQAPGKERELVAAINSSGSTNYADSVKGRFTISRDNAKNSGYLQRNILKPEDTAVYYCAAHWRYGRKFDYWGQGTQVTVSS,high polyreactivity
9,QVQLVESGGGLVQAGGSLRLSCAASGIIFYDYAMGWYRQAPGKERELVAAISRSGGSTYYADSVKGRFTISRDNATNTVYLQMNSLKPEDTAVYYCNADEVVWGYNYWGQGTQVTVSS,low polyreactivity
10,QVQLVESGGGLVQAGGSLRLSCAASGSTFSDYAMGWYRQAPGKERELVADISSDGSTYYADSVKGRFTISRDNAKNTVYLQMNSLKPEDTAVYYCNAGYPDYDWTWWHISYDYWGQGTQVTVSS,low polyreactivity
11,QVQLVESGGGLVQAGGSLRLSCAASGSTLGYYAMGWYRQAPGKERELVAAIRYSDGNTYYADSVKGRFTISRDNAKNTVYLQMNSLKPEDTAVYYCAADGGYYGREYWGQGTQVTVSS,high polyreactivity
12,QVQLVESGGGLVQAGGSLRLSCAASGSTFTVYAMGWYRQAPGKEREFVAAITPSGASTYYADSVKGRFTISRDNAKNTVYLQMNSLKPEDTAVYYCNARSRTGYTNRMYYWGQGTQVTVSS,high polyreactivity
13,QVQLVESGGGLVQAGGSLRLTCAASGRSFRRYAMGWYREAPGKERELVAAITWRGSSTYYADSVKGRFTISRDNAKNTVYLQMNSLKPEDTAVYYCAADIGYTYEYYYWGQGTQVTLSS,high polyreactivity
14,QVQLVESGGGLVQAGGSLRLSCAASGFIFRGNARGWYRQAPGKERELVAAISVRGGRTYYADSVKGRFTISRDNAKNTVYLQMNSLKPEDTAVYDCAADLYNRGRGSSQSYRTGYDYWGQGTQVTVSS,high polyreactivity
15,QVQLVESGGGLVQAGGSLRLSCAASGYTFSFYAMGWYRQATGKERELVADISRSGGSTYYADSVKGRFTISRDNAKNTVYLQMNSQKPEDTAVYYCAARWPGAYHEYGYLGQGTQVTVSS,high polyreactivity
16,QVQLVESGGGLVQAGGSLRLSCAAYGHFFAIYAMGWYSQAPGKEREFVAAITFTTRTYYADSVKGRFTISRDNAKNTVYLQMNSLKPEDTAVYYCAAGGYGEEYDYWGQGTQVTVSS,low polyreactivity
17,QVQLVESGGGLVQAGGSLRLSCAASGLIFGDYVMGWYRQAPGKERELVAAISNNGDSTYYADSVKGRFTISRDNAKNTVYLQMNSLIPEDTAVYYCNADGDRGGYVLTEHDSWGQGTQVTVSS,low polyreactivity
18,QVQLVESGGGLVQAGGSLRLSCAASGYTFRKYAMGWYRQAPGKERELVAAITYTGGSTYYADSVKGRFTISRDNAKNTVYLQMNSLKPEDTAVYYCARRYRWGEYGYWGQGTQVTVSS,high polyreactivity
19,QVQLVESGGGLVQAGGSLRLSCAASGSTFDGYAMGWSRQAPGKERELVGSITRRGGSTYYADSVKGRFTISRDNAKNTVYVQMNSLKPEDTAVYYCAVLGRGVSGYTWPYDYWGQGTQVTVSS,high polyreactivity
20,QVQLVESGGGLVQAGGSLRLSCAASGFTFTTNAMGWYRQAPGKEREFVAAISRSGGSTDYADSVKGRFTISRDNAKNTVYLQMNSLKPEDTAVYYCNADPRLRQTRDYWGHGTQVTVSS,high polyreactivity
21,QVQLVESGGGIVQAGGSLRLSCAASGSTFYDYAMGWYRQAPGKETELVAAITRGGSTYYADSVKGRFTISRDNAKNTVYLQMNILKPEDTAVFYCAKYLTCAAYLVPEYDYWGQGTQVSVSS,low polyreactivity
